Test results as given in PMC5118228 (EJNMMI Research, 2016).

Assay: in vivo
Conditions: male, athymic nu/nu, mouse, iv, total radioactivity
[1] = 0.3 nmol, uptake in Red blood cell
[2] = 1 nmol, uptake in Red blood cell
[3] = 3 nmol, uptake in Red blood cell

Work on `C[C@@H](O)[C@H](NC(=O)[C@@H]1CSSC[C@H](NC(=O)[C@@H](Cc2ccccc2)NC(=O)CN2CCN(CC(=O)O)CCN(CC(=O)O)CCN(CC(=O)O)CC2)C(=O)N[C@@H](Cc2ccc(O)cc2)C(=O)N[C@H](Cc2c[nH]c3ccccc23)C(=O)N[C@@H](CCCCN)C(=O)N[C@@H]([C@@H](C)O)C(=O)N1)C(=O)O` [^111In-DOTATATE, metal not drawn] yielded a tissue uptake at 0.5 h (0.3 nmol, uptake in Pancreas) of 3.2 ± 0.4 %ID/g, a tissue uptake at 1 h (0.3 nmol, uptake in Pancreas) of 3 ± 1 %ID/g and a tissue uptake at 0.05 h (0.3 nmol, uptake in Pituitary) of 0.3 %ID/g. For the same compound, the tissue uptake at 10 min (0.3 nmol, uptake in Pituitary) was 0.2 ± 0.05 %ID/g, the tissue uptake at 0.5 h (0.3 nmol, uptake in Pituitary) was 0.1 %ID/g and the tissue uptake at 1 h (0.3 nmol, uptake in Pituitary) was under 0.05 %ID/g. It also gave a tissue uptake at 0.05 h (0.3 nmol, uptake in Plasma) of 13.4 ± 1.4 %ID/g, a tissue uptake at 10 min (0.3 nmol, uptake in Plasma) of 7.2 ± 2 %ID/g and a tissue uptake at 0.5 h (0.3 nmol, uptake in Plasma) of 3.4 ± 0.5 %ID/g. The tissue uptake at 1 h (0.3 nmol, uptake in Plasma) was 0.7 ± 0.2 %ID/g, the tissue uptake at 0.05 h [1] was 2.6 ± 0.6 %ID/g and the tissue uptake at 10 min [1] was 1.3 ± 0.4 %ID/g. The tissue uptake at 0.5 h [1] was 0.6 ± 0.1 %ID/g, the tissue uptake at 1 h [1] was under 0.05 %ID/g and the tissue uptake at 10 min (0.3 nmol, uptake in Stomach) was 3.9 ± 0.4 %ID/g. For the same compound, the tissue uptake at 0.5 h (0.3 nmol, uptake in Stomach) was 3.5 ± 0.2 %ID/g, the tissue uptake at 1 h (0.3 nmol, uptake in Stomach) was 3.4 ± 0.8 %ID/g and the tissue uptake at 10 min (0.3 nmol, uptake in Tumor) was 8 ± 1.2 %ID/g. It also gave a tissue uptake at 0.5 h (0.3 nmol, uptake in Tumor) of 9.9 ± 3 %ID/g, a tissue uptake at 1 h (0.3 nmol, uptake in Tumor) of 9.9 ± 0.7 %ID/g and a tissue uptake at 0.5 h (1 nmol, uptake in Adrenals) of 0.5 ± 0.09 %ID/g. For the same compound, the tissue uptake at 1 h (1 nmol, uptake in Adrenals) was 0.5 ± 0.05 %ID/g, the tissue uptake at 0.05 h (1 nmol, uptake in Kidney) was 17.5 ± 9.7 %ID/g and the tissue uptake at 10 min (1 nmol, uptake in Kidney) was 14.2 ± 7 %ID/g. For the same compound, the tissue uptake at 0.5 h (1 nmol, uptake in Kidney) was 6 ± 1.8 %ID/g, the tissue uptake at 1 h (1 nmol, uptake in Kidney) was 14.1 ± 3.4 %ID/g and the tissue uptake at 0.05 h (1 nmol, uptake in Muscles) was 1.2 ± 0.4 %ID/g. It also gave a tissue uptake at 10 min (1 nmol, uptake in Muscles) of 1 ± 0.5 %ID/g, a tissue uptake at 0.5 h (1 nmol, uptake in Muscles) of 0.2 ± 0.09 %ID/g and a tissue uptake at 1 h (1 nmol, uptake in Muscles) of under 0.05 %ID/g. The tissue uptake at 0.05 h (1 nmol, uptake in Pancreas) was 3.5 ± 2.4 %ID/g, the tissue uptake at 0.5 h (1 nmol, uptake in Pancreas) was 0.7 ± 0.2 %ID/g and the tissue uptake at 1 h (1 nmol, uptake in Pancreas) was 1.5 ± 0.3 %ID/g. It also gave a tissue uptake at 0.05 h (1 nmol, uptake in Pituitary) of 0.1 ± 0.09 %ID/g, a tissue uptake at 10 min (1 nmol, uptake in Pituitary) of 0.8 ± 1.4 %ID/g and a tissue uptake at 0.5 h (1 nmol, uptake in Pituitary) of under 0.05 %ID/g. It also gave a tissue uptake at 1 h (1 nmol, uptake in Pituitary) of under 0.05 %ID/g, a tissue uptake at 0.05 h (1 nmol, uptake in Plasma) of 11.3 ± 4.9 %ID/g and a tissue uptake at 10 min (1 nmol, uptake in Plasma) of 7.6 ± 3.1 %ID/g. The tissue uptake at 1 h (1 nmol, uptake in Plasma) was 0.6 ± 0.2 %ID/g, the tissue uptake at 0.05 h [2] was 2.3 ± 0.4 %ID/g and the tissue uptake at 10 min [2] was 1.3 ± 0.5 %ID/g. It also gave a tissue uptake at 0.5 h [2] of 0.3 ± 0.1 %ID/g, a tissue uptake at 1 h [2] of 0.4 ± 0.1 %ID/g and a tissue uptake at 0.05 h (1 nmol, uptake in Stomach) of 2.4 ± 1.1 %ID/g. For the same compound, the tissue uptake at 0.5 h (1 nmol, uptake in Stomach) was 0.8 ± 0.2 %ID/g, the tissue uptake at 0.05 h (1 nmol, uptake in Tumor) was 5.6 ± 2 %ID/g and the tissue uptake at 10 min (1 nmol, uptake in Tumor) was 6.7 ± 2.9 %ID/g. For the same compound, the tissue uptake at 0.5 h (1 nmol, uptake in Tumor) was 2.9 ± 0.6 %ID/g, the tissue uptake at 1 h (1 nmol, uptake in Tumor) was 7 ± 1.1 %ID/g and the tissue uptake at 10 min (3 nmol, uptake in Adrenals) was 1.1 ± 0.7 %ID/g. The tissue uptake at 0.5 h (3 nmol, uptake in Adrenals) was 0.6 ± 0.2 %ID/g, the tissue uptake at 1 h (3 nmol, uptake in Adrenals) was 0.3 ± 0.06 %ID/g and the tissue uptake at 0.05 h (3 nmol, uptake in Kidney) was 19.1 ± 3.1 %ID/g. It also gave a tissue uptake at 10 min (3 nmol, uptake in Kidney) of 14.6 ± 2.9 %ID/g, a tissue uptake at 0.5 h (3 nmol, uptake in Kidney) of 14.5 ± 1.1 %ID/g and a tissue uptake at 1 h (3 nmol, uptake in Kidney) of 14.7 ± 2.1 %ID/g. The tissue uptake at 0.05 h (3 nmol, uptake in Muscles) was 1.3 ± 0.3 %ID/g, the tissue uptake at 10 min (3 nmol, uptake in Muscles) was 0.8 ± 0.3 %ID/g and the tissue uptake at 0.5 h (3 nmol, uptake in Muscles) was 0.3 ± 0.1 %ID/g. It also gave a tissue uptake at 1 h (3 nmol, uptake in Muscles) of under 0.05 %ID/g, a tissue uptake at 0.05 h (3 nmol, uptake in Pancreas) of 2.2 ± 0.4 %ID/g and a tissue uptake at 10 min (3 nmol, uptake in Pancreas) of 1.6 ± 0.2 %ID/g. The tissue uptake at 0.5 h (3 nmol, uptake in Pancreas) was 1 ± 0.2 %ID/g, the tissue uptake at 1 h (3 nmol, uptake in Pancreas) was 0.8 ± 1 %ID/g and the tissue uptake at 0.05 h (3 nmol, uptake in Pituitary) was 0.2 ± 0.06 %ID/g. It also gave a tissue uptake at 10 min (3 nmol, uptake in Pituitary) of 0.1 ± 0.06 %ID/g, a tissue uptake at 0.5 h (3 nmol, uptake in Pituitary) of 0.08 ± 0.06 %ID/g and a tissue uptake at 1 h (3 nmol, uptake in Pituitary) of under 0.05 %ID/g. It also gave a tissue uptake at 0.05 h (3 nmol, uptake in Plasma) of 13.8 ± 1.7 %ID/g, a tissue uptake at 10 min (3 nmol, uptake in Plasma) of 8.4 ± 0.9 %ID/g and a tissue uptake at 1 h (3 nmol, uptake in Plasma) of 0.6 ± 0.2 %ID/g. For the same compound, the tissue uptake at 10 min [3] was 2.4 ± 0.3 %ID/g, the tissue uptake at 0.5 h [3] was 0.6 ± 0.2 %ID/g and the tissue uptake at 1 h [3] was under 0.05 %ID/g. It also gave a tissue uptake at 0.05 h (3 nmol, uptake in Stomach) of 3.2 ± 0.5 %ID/g, a tissue uptake at 10 min (3 nmol, uptake in Stomach) of 2.3 ± 0.2 %ID/g and a tissue uptake at 0.5 h (3 nmol, uptake in Stomach) of 1.5 ± 0.6 %ID/g. It also gave a tissue uptake at 1 h (3 nmol, uptake in Stomach) of 1.6 ± 0.7 %ID/g and a tissue uptake at 0.05 h (3 nmol, uptake in Tumor) of 2.9 ± 1.1 %ID/g.
